The values below come from US6566104.

This assay deals with endogenous ErbB-4 of T47D human breast cancer cells (human) (UniProt Q15303). Briefly: cell-based or functional assay.
Chain of UniProt Q15303 (Q15303 26-1308, stated change not applied): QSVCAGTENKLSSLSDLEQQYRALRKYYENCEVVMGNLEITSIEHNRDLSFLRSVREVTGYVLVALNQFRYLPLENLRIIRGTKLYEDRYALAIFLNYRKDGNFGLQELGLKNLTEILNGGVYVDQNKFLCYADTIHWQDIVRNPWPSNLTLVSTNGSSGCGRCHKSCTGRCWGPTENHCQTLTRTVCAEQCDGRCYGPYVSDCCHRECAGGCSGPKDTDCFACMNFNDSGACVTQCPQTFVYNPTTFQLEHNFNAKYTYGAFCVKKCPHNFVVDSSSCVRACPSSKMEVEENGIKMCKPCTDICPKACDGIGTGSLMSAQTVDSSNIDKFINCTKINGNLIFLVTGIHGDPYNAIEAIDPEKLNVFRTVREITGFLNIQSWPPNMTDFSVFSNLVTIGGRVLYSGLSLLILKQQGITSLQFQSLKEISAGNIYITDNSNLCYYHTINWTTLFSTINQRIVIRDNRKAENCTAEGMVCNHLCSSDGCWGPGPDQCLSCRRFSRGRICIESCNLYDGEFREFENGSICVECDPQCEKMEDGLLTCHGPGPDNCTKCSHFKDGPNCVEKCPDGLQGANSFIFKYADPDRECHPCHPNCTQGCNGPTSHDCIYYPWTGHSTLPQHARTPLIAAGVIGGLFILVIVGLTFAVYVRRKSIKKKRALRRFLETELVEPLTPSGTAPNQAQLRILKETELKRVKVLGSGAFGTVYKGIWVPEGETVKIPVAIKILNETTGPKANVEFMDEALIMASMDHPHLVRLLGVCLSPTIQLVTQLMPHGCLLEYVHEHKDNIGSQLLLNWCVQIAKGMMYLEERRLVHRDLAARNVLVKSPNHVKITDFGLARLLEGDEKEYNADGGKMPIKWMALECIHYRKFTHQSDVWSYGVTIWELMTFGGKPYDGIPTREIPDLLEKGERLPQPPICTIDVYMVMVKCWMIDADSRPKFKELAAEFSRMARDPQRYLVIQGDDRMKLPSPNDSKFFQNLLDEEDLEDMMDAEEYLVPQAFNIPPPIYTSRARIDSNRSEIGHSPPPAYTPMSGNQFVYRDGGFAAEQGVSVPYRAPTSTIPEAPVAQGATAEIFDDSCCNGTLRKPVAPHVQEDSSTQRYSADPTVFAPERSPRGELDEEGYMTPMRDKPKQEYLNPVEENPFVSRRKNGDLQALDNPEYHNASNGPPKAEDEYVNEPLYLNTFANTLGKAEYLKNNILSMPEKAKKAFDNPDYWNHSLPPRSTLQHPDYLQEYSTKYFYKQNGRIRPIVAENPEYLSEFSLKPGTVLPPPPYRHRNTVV

As to “NRG1-α (from UniProt Q02297 177-241) (ligand)”, the colony formation in soft agar, T47D wild type cells treated with neuregulin (FIG. 13) was 11 fold and the colony formation in soft agar, ribozyme transfected T47D cells (T47D/Rz, ErbB-4 down-regulated) worked out at 2.5 fold.
